The values below come from patent publication US20120142593A1 (Bayer, published 2012).

The target of experiment [1] is human von Willebrand Factor (human) (UniProt P04275). In words: Biacore SPR, human vWF immobilized on a CM-5 chip by amine coupling, full-length recombinant FVIII passed over as analyte. In general terms: In SPR one partner is held on a chip, and binding of the other changes the refractive index at the surface.
In experiment [2] the target is T1, human von Willebrand Factor (human, UniProt P04275 764-2813).
T1 construct: also called vWF; vWf
In words: Biacore, human vWF immobilized on CM-5 chip. As to the method: (§1) Human vWF was immobilized onto a CM-5 chip by amine coupling. Two Factor VIII heterodimers (BDDFc+hinge and BDDFc−hinge), BDD (the Factor VIII protein from which BDDFc+hinge and BDDFc−hinge are derived), and full-length recombinant Factor VIII were passed over the surface of the chip at various concentrations (e.g., 1, 2, 4, 8, 16, and 25 nM).

The target of a further experiment is T2, recombinant mouse FcRn (mouse, UniProt Q61559 22-297; P01887 21-119, limits assumed).
T2 construct: also called mFcRn
T2 sequence (looked up) 1: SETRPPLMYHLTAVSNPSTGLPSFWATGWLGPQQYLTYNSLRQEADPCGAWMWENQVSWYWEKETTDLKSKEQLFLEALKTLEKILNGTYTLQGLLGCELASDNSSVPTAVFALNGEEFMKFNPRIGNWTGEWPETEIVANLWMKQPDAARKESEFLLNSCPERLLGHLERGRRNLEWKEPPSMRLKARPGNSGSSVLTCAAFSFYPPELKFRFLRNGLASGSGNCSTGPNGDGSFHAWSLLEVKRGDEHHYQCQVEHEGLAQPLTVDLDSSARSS
T2 sequence (looked up) 2: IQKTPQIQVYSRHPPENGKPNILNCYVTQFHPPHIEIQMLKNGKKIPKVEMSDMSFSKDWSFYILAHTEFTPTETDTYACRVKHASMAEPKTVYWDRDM
Briefly: Biacore, mFcRn immobilized on CM-5 chip. The source says:
The following example describes functional studies performed using the Biacore™ system to determine whether an FcRn binding epitope retains it ability to bind to FnRn when incorporated in a Factor VIII fusion heterodimer. For use in the Biacore™ test, recombinant mouse FcRn (mFcRn) protein was expressed in CHO-K1 cells and purified by mouse IgG-affinity chromatography. Mouse FcRn was immobilized onto a CM-5 chip by amine coupling. Two Factor VIII heterodimers (BDDFc+hinge and BDDFc−hinge), BDD (the Factor VIII protein from which BDDFc+hinge and BDDFc−hinge are derived), and full-length recombinant Factor VIII were passed over the surface of the chip at various concentrations (e.g., 1.5, 3, 6, 12, 25, and 50 nM). Binding of BDDFc±hinge Factor VIII fusion heterodimers to immobilized mFcRn was detected (FIG. 13).

The target in experiment [3] is T1, human von Willebrand Factor. In words: Biacore SPR, human vWF immobilized on a CM-5 chip by amine coupling, BDD passed over as analyte. The procedure:
as §1

With “full-length recombinant Factor VIII (from UniProt P00451 20-2351)”, the Kd in experiment [1] was determined as 0.657 nM.

B1: BDDFc-hinge Factor VIII fusion heterodimer (Fc fusion)
chain: ATRRYYLGAVELSWDYMQSDLGELPVDARFPPRVPKSFPFNTSVVYKKTLFVEFTDHLFNIAKPRPPWMGLLGPTIQAEVYDTVVITLKNMASHPVSLHAVGVSYWKASEGAEYDDQTSQREKEDDKVFPGGSHTYVWQVLKENGPMASDPLCLTYSYLSHVDLVKDLNSGLIGALLVCREGSLAKEKTQTLHKFILLFAVFDEGKSWHSETKNSLMQDRDAASARAWPKMHTVNGYVNRSLPGLIGCHRKSVYWHVIGMGTTPEVHSIFLEGHTFLVRNHRQASLEISPITFLTAQTLLMDLGQFLLFCHISSHQHDGMEAYVKVDSCPEEPQLRMKNNEEAEDYDDDLTDSEMDVVRFDDDNSPSFIQIRSVAKKHPKTWVHYIAAEEEDWDYAPLVLAPDDRSYKSQYLNNGPQRIGRKYKKVRFMAYTDETFKTREAIQHESGILGPLLYGEVGDTLLIIFKNQASRPYNIYPHGITDVRPLYSRRLPKGVKHLKDFPILPGEIFKYKWTVTVEDGPTKSDPRCLTRYYSSFVNMERDLASGLIGPLLICYKESVDQRGNQIMSDKRNVILFSVFDENRSWYLTENIQRFLPNPAGVQLEDPEFQASNIMHSINGYVFDSLQLSVCLHEVAYWYILSIGAQTDFLSVFFSGYTFKHKMVYEDTLTLFPFSGETVFMSMENPGLWILGCHNSDFRNRGMTALLKVSSCDKNTGDYYEDSYEDISAYLLSKNNAIEPRSFSQNVPEVSSVFIFPPKPKDVLTITLTPKVTCVVVDISKDDPEVQFSWFVDDVEVHTAQTQPREEQFNSTFRSVSELPIMHQDWLNGKEFKCRVNSAAFPAPIEKTISKTKGRPKAPQVYTIPPPKEQMAKDKVSLTCMITDFFPEDITVEWQWNGQPAENYKNTQPIMDTDGSYFVYSKLNVQKSNWEAGNTFTCSVLHEGLHNHHTEKSLSHSPGKSQNPPVLKRHQREITRTTLQSDQEEIDYDDTISVEMKKEDFDIYDEDENQSPRSFQKKTRHYFIAAVERLWDYGMSSSPHVLRNRAQSGSVPQFKKVVFQEFTDGSFTQPLYRGELNEHLGLLGPYIRAEVEDNIMVTFRNQASRPYSFYSSLISYEEDQRQGAEPRKNFVKPNETKTYFWKVQHHMAPTKDEFDCKAWAYFSDVDLEKDVHSGLIGPLLVCHTNTLNPAHGRQVTVQEFALFFTIFDETKSWYFTENMERNCRAPCNIQMEDPTFKENYRFHAINGYIMDTLPGLVMAQDQRIRWYLLSMGSNENIHSIHFSGHVFTVRKKEEYKMALYNLYPGVFETVEMLPSKAGIWRVECLIGEHLHAGMSTLFLVYSNKCQTPLGMASGHIRDFQITASGQYGQWAPKLARLHYSGSINAWSTKEPFSWIKVDLLAPMIIHGIKTQGARQKFSSLYISQFIIMYSLDGKKWQTYRGNSTGTLMVFFGNVDSSGIKHNIFNPPIIARYIRLHPTHYSIRSTLRMELMGCDLNSCSMPLGMESKAISDAQITASSYFTNMFATWSPSKARLHLQGRSNAWRPQVNNPKEWLQVDFQKTMKVTGVTTQGVKSLLTSMYVKEFLISSSQDGHQWTLFFQNGKVKVFQGNQDSFTPVVNSLDPPLLTRYLRIHPQSWVHQIALRMEVLGCEAQDLY
notes: No signal peptide limits are stated on this entry; It is processed into a heavy chain-Fc chimera and a light chain; also called BDDmFc-hinge expression product; FVIII-Fc
On to B1, for which the Kd in experiment [2] came out at 0.908 nM; with recombinant mouse FcRn, 3.75 nM.

B2: BDDFc+hinge Factor VIII fusion heterodimer (Fc fusion)
chain: ATRRYYLGAVELSWDYMQSDLGELPVDARFPPRVPKSFPFNTSVVYKKTLFVEFTDHLFNIAKPRPPWMGLLGPTIQAEVYDTVVITLKNMASHPVSLHAVGVSYWKASEGAEYDDQTSQREKEDDKVFPGGSHTYVWQVLKENGPMASDPLCLTYSYLSHVDLVKDLNSGLIGALLVCREGSLAKEKTQTLHKFILLFAVFDEGKSWHSETKNSLMQDRDAASARAWPKMHTVNGYVNRSLPGLIGCHRKSVYWHVIGMGTTPEVHSIFLEGHTFLVRNHRQASLEISPITFLTAQTLLMDLGQFLLFCHISSHQHDGMEAYVKVDSCPEEPQLRMKNNEEAEDYDDDLTDSEMDVVRFDDDNSPSFIQIRSVAKKHPKTWVHYIAAEEEDWDYAPLVLAPDDRSYKSQYLNNGPQRIGRKYKKVRFMAYTDETFKTREAIQHESGILGPLLYGEVGDTLLIIFKNQASRPYNIYPHGITDVRPLYSRRLPKGVKHLKDFPILPGEIFKYKWTVTVEDGPTKSDPRCLTRYYSSFVNMERDLASGLIGPLLICYKESVDQRGNQIMSDKRNVILFSVFDENRSWYLTENIQRFLPNPAGVQLEDPEFQASNIMHSINGYVFDSLQLSVCLHEVAYWYILSIGAQTDFLSVFFSGYTFKHKMVYEDTLTLFPFSGETVFMSMENPGLWILGCHNSDFRNRGMTALLKVSSCDKNTGDYYEDSYEDISAYLLSKNNAIEPRSFSQNVPRDCGCKPCICTVPEVSSVFIFPPKPKDVLTITLTPKVTCVVVDISKDDPEVQFSWFVDDVEVHTAQTQPREEQFNSTFRSVSELPIMHQDWLNGKEFKCRVNSAAFPAPIEKTISKTKGRPKAPQVYTIPPPKEQMAKDKVSLTCMITDFFPEDITVEWQWNGQPAENYKNTQPIMDTDGSYFVYSKLNVQKSNWEAGNTFTCSVLHEGLHNHHTEKSLSHSPGKSQNPPVLKRHQREITRTTLQSDQEEIDYDDTISVEMKKEDFDIYDEDENQSPRSFQKKTRHYFIAAVERLWDYGMSSSPHVLRNRAQSGSVPQFKKVVFQEFTDGSFTQPLYRGELNEHLGLLGPYIRAEVEDNIMVTFRNQASRPYSFYSSLISYEEDQRQGAEPRKNFVKPNETKTYFWKVQHHMAPTKDEFDCKAWAYFSDVDLEKDVHSGLIGPLLVCHTNTLNPAHGRQVTVQEFALFFTIFDETKSWYFTENMERNCRAPCNIQMEDPTFKENYRFHAINGYIMDTLPGLVMAQDQRIRWYLLSMGSNENIHSIHFSGHVFTVRKKEEYKMALYNLYPGVFETVEMLPSKAGIWRVECLIGEHLHAGMSTLFLVYSNKCQTPLGMASGHIRDFQITASGQYGQWAPKLARLHYSGSINAWSTKEPFSWIKVDLLAPMIIHGIKTQGARQKFSSLYISQFIIMYSLDGKKWQTYRGNSTGTLMVFFGNVDSSGIKHNIFNPPIIARYIRLHPTHYSIRSTLRMELMGCDLNSCSMPLGMESKAISDAQITASSYFTNMFATWSPSKARLHLQGRSNAWRPQVNNPKEWLQVDFQKTMKVTGVTTQGVKSLLTSMYVKEFLISSSQDGHQWTLFFQNGKVKVFQGNQDSFTPVVNSLDPPLLTRYLRIHPQSWVHQIALRMEVLGCEAQDLY
notes: also called BDDmFc+hinge expression product
Take B2: the Kd in experiment [2] amounted to 0.465 nM; with recombinant mouse FcRn it was 2.48 nM.

B3: B-domain deleted Factor VIII (BDD) (other)
chain: ATRRYYLGAVELSWDYMQSDLGELPVDARFPPRVPKSFPFNTSVVYKKTLFVEFTVHLFNIAKPRPPWMGLLGPTIQAEVYDTVVITLKNMASHPVSLHAVGVSYWKASEGAEYDDQTSQREKEDDKVFPGGSHTYVWQVLKENGPMASDPLCLTYSYLSHVDLVKDLNSGLIGALLVCREGSLAKEKTQTLHKFILLFAVFDEGKSWHSETKNSLMQDRDAASARAWPKMHTVNGYVNRSLPGLIGCHRKSVYWHVIGMGTTPEVHSIFLEGHTFLVRNHRQASLEISPITFLTAQTLLMDLGQFLLFCHISSHQHDGMEAYVKVDSCPEEPQLRMKNNEEAEDYDDDLTDSEMDVVRFDDDNSPSFIQIRSVAKKHPKTWVHYIAAEEEDWDYAPLVLAPDDRSYKSQYLNNGPQRIGRKYKKVRFMAYTDETFKTREAIQHESGILGPLLYGEVGDTLLIIFKNQASRPYNIYPHGITDVRPLYSRRLPKGVKHLKDFPILPGEIFKYKWTVTVEDGPTKSDPRCLTRYYSSFVNMERDLASGLIGPLLICYKESVDQRGNQIMSDKRNVILFSVFDENRSWYLTENIQRFLPNPAGVQLEDPEFQASNIMHSINGYVFDSLQLSVCLHEVAYWYILSIGAQTDFLSVFFSGYTFKHKMVYEDTLTLFPFSGETVFMSMENPGLWILGCHNSDFRNRGMTALLKVSSCDKNTGDYYEDSYEDISAYLLSKNNAIEPRSFSQNPPVLKRHQREITRTTLQSDQEEIDYDDTISVEMKKEDFDIYDEDENQSPRSFQKKTRHYFIAAVERLWDYGMSSSPHVLRNRAQSGSVPQFKKVVFQEFTDGSFTQPLYRGELNEHLGLLGPYIRAEVEDNIMVTFRNQASRPYSFYSSLISYEEDQRQGAEPRKNFVKPNETKTYFWKVQHHMAPTKDEFDCKAWAYFSDVDLEKDVHSGLIGPLLVCHTNTLNPAHGRQVTVQEFALFFTIFDETKSWYFTENMERNCRAPCNIQMEDPTFKENYRFHAINGYIMDTLPGLVMAQDQRIRWYLLSMGSNENIHSIHFSGHVFTVRKKEEYKMALYNLYPGVFETVEMLPSKAGIWRVECLIGEHLHAGMSTLFLVYSNKCQTPLGMASGHIRDFQITASGQYGQWAPKLARLHYSGSINAWSTKEPFSWIKVDLLAPMIIHGIKTQGARQKFSSLYISQFIIMYSLDGKKWQTYRGNSTGTLMVFFGNVDSSGIKHNIFNPPIIARYIRLHPTHYSIRSTLRMELMGCDLNSCSMPLGMESKAISDAQITASSYFTNMFATWSPSKARLHLQGRSNAWRPQVNNPKEWLQVDFQKTMKVTGVTTQGVKSLLTSMYVKEFLISSSQDGHQWTLFFQNGKVKVFQGNQDSFTPVVNSLDPPLLTRYLRIHPQSWVHQIALRMEVLGCEAQDLY
notes: The protein circulates as a heavy chain and light chain heterodimer; also called BDD-FVIII; BDD Factor VIII
The molecule B3 had a Kd in experiment [3] of 0.53 nM.

A word on the Kd: it is the free concentration of one partner at which half of the binding sites on the other are occupied at equilibrium, for simple one-to-one binding.
